# Experiments:
# [1] = target: CS receptor on primary mouse hepatocytes (mouse)
# [2] = target: CS receptor on primary mouse hepatocytes (mouse); remark: listed apart in the source
# [3] = substrate: CS receptor on primary mouse hepatocytes (mouse); remark: listed apart in the source
Molecule,transfection efficiency of primary hepatocytes (X-gal staining) (% transfection efficiency) [1],other results
BSA/poly(L-lysine) conjugate (from UniProt P02769),< 10,–
DHFR-CSF1-His6/poly(L-lysine) conjugate (from UniProt P00375),–,Blue cells (%) after transfection of primary hepatocytes with conjugate/pCMV-β-gal DNA complex (X-gal staining) [2]: < 1 % blue cells
poly(L-lysine),< 5,–
EWSPCSVTCGNGIQVRIKPGSAN [Peptide E35],–,inhibition of β-galactosidase activity (ONPG) in CS27IVC-His6 conjugate-mediated gene transfer into primary hepatocytes (% inhibited at 0.125 µM) [3]: 50
